System: Gp90 D234A (DNA polymerase, exonuclease-deficient) (Pseudomonas aeruginosa phage PaP1)
Assay: SPR
Details: SPR (Biacore 3000, SA chip, steady-state fit): 40 mM Tris-HCl pH 7.5, 10 mM DTT, 50 mM potassium glutamate, room temperature, 20-600 nM protein, ternary assays …

Sequence “TTTGCTACAGAGTTATGGTGACGATACGTC / TGAATTCTAATGTAGTATAGTAATCCGCTCTATCGGACGTATCGTCACCATAACTCTGTAGC [30-mer(dd)/62-mer 8-oxoG primer-template]” has a Kd (30 mM Mg2+, 1 mM dATP (ternary complex, mispair), 8-oxoG at template position 35 from 5' end (28th from 3' end, first templating base), primer 3'-terminal ddC) of 0.045 µM, a Kd (30 mM Mg2+, 1 mM dCTP (ternary complex), 8-oxoG at template position 35 from 5' end (28th from 3' end, first templating base), primer 3'-terminal ddC) of 0.034 µM and a Kd (no Mg2+, no dNTP (binary complex), 8-oxoG at template position 35 from 5' end (28th from 3' end, first templating base), primer 3'-terminal ddC) of 0.116 µM.

In the case of “TTTGCTACAGAGTTATGGTGACGATACGTC / TGAATTCTAATGTAGTATAGTAATCCGCTCTATCGGACGTATCGTCACCATAACTCTGTAGC [30-mer(dd)/62-mer G primer-template]”, the Kd (30 mM Mg2+, 1 mM dCTP (ternary complex), primer 3'-terminal dideoxycytidine (ddC, chain terminator)) is reported as 0.011 µM and the Kd (no Mg2+, no dNTP (binary complex), primer 3'-terminal dideoxycytidine (ddC, chain terminator)) is reported as 0.108 µM.

— paper PMC5295013
